One molecule from patent US6551840B2, “Method of screening TGF-β-inhibiting substances” (Chugai Seiyaku Kabushiki Kaisha, priority 1997, dated 2003) can be followed below.

Test [1] relates to human fibroblast-derived HT-1080. The experiment in a line: Fibronectin EIA in HT-1080 cells expressing TAK1-DN with or without TGF-β. Format: cell-based. The conditions noted are these: 1 ng/ml TGF-β, 24 hours; for increase of fibronectin in the culture supernatant by TGF-β addition: control HT/NEO about 6.1 fold; for increase of fibronectin in the extracellular matrix extract by TGF-β addition: control HT/NEO about 11.4 fold. The source says: Then, pTAK1DN or pCOS1 that contains no inserted genes as a control vector was linearized by digesting with a restriction enzyme PvuI. These linearized vectors were introduced by electroporation into human fibroblast-derived HT-1080 (ATCC CCL 121), a mouse kidney mesangial cell line SV40MES13 (ATCC CRL 1927), and a mink pulmonary epithelial cell line Mv1Lu (ATCC CCL 64), and cells into which the gene was introduced were selected using G418 (manufactured by GIBCO-BRL).
The human fibroblast-derived HT-1080 cells (HT/DN2 and HT/DN14) into which pTAK1DN had been introduced and the control cells (HT/NEO) into which pCOS1 containing no inserted genes had been introduced were incubated in a low-serum medium (Medium 199 containing 0.2% FBS; manufactured by GIBCO BRL) with or without 1 ng/ml TGF-β (manufactured by King Jozo) for 24 hours. The amount of fibronectin in the culture supernatant or the extracellular matrix extract prepared using 1 M urea solution (1 M urea, 1 mM DTT, 10 mM Tris-HCl, pH 7.4, 10 mM EDTA, Protease inhibitor cocktail (CompleteTM, manufactured by Boehringer-Mannheim)) was determined by the EIA method.
Thus, 100 μl of the culture supernatant or the extracellular matrix extract prepared using 1 M urea solution was added to a 96-well microtiter plate (manufactured by Nunc), and the plate was incubated overnight at 4° C. After washing, it was blocked using a 1% BSA solution (50 mM Tris-HCl, pH 8.0, 1 mM MgCl2, 150 mM NaCl, 0.05% Tween 20, 0.02% sodium azide), and then 10000 fold-diluted rabbit anti-human fibronectin antibody (manufactured by CALBIOCHEM) was added to the above 1% BSA solution, and was further incubated at room temperature for 2 hours.
After washing, alkaline phosphatase-labeled goat anti-rabbit Ig antibody (manufactured by TAGO) was added, and was further incubated at room temperature for one hour. Then the substrate solution (p-nitrophenyl phosphate; manufactured by Sigma) was added and absorbance at […] was measured. As a standard, human fibronectin (manufactured by Cappel) was used.

In another test the target is T1, TAB1 (Homo sapiens, UniProt Q15750).
T1 construct: expressed in transfected cells; host or cells: CHO cells
T1 sequence (Q15750 437-504): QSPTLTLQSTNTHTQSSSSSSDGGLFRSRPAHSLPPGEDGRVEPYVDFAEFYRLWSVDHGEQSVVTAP
The experiment in a line: Animal cell 2-hybrid system in CHO cells, luciferase activity. Conditions: 72 hours after gene introduction, similar to pM-TAK1 and pVP16-C68. Format: cell-based. The protocol: It was analyzed whether a polypeptide (TAK1-DN) comprising Glu at position 77 to Gln at position 303 of the TAK1 polypeptide as set forth in SEQ ID NO: 4 inhibits binding between the TAK1 polypeptide and the TAB1 polypeptide and whether it can inhibit the activation of the TAK1 polypeptide in animal cells by an animal cell 2-hybrid system (Dang et al., (1991) Mol. Cell. Biol. 11, 954-962) using the TAB1 polypeptide and the TAK1 polypeptide.
First, a gene encoding a full-length TAK1 and TAK1-DN and a gene encoding the GAL4 DNA-binding domain (GAL4-BD) were ligated to construct an expression vector. A gene encoding a full-length TAK1 was prepared by digesting yeast 2-hybrid expression plasmid pBTMHu11F (Shibuya H. et al., (1996) 272, 1179-1182) with restriction enzymes EcoRI and PstI, and was then linked to the EcoRI/Pst site of an expression vector pM (manufactured by CLONTECH) containing the GAL4-BD gene, which was termed an animal cell 2-hybrid expression plasmid pM-TAK1. […]
After further incubating for 72 hours, luciferase activity in each cell extract was determined using the Dual-LuciferaseTM Assay System (manufactured by Promega). […] The efficiency of gene introduction was corrected with the measured value of luciferase activity of Renilla by pRL-SV40.

B1: TAK1-DN: polypeptide of Glu at position 77 to Gln at position 303 of TAK1 (SEQ ID NO: 4), the TAB1 binding site; dominant negative inhibitor (protein)
chain: ELRQLSRVNHPNIVKLYGACLNPVCLVMEYAEGGSLYNVLHGAEPLPYYTAAHAMSWCLQCSQGVAYLHSMQPKALIHRDLKPPNLLLVAGGTVLKICDFGTACDIQTHMTNNKGSAAWMAPEVFEGSNYSEKCDVFSWGIILWEVITRRKPFDEIGGPAFRIMWAVHNGTRPPLIKNLPKPIESLMTRCWSKDPSQRPSMEEIVKIMTHLMRYFPGADEPLQYPCQ
As for B1, in test [1] (HT/DN2 cells), the “increase of fibronectin in the culture supernatant by TGF-β addition” value was “about 2.6 fold” and the “increase of fibronectin in the extracellular matrix extract by TGF-β addition” value is listed as “about 3.5 fold”. For the same molecule, in test [1] (HT/DN14 cells), the “increase of fibronectin in the culture supernatant by TGF-β addition” value is reported as about 3.0 fold and the “increase of fibronectin in the extracellular matrix extract by TGF-β addition” value is listed as about 3.6 fold. In the test with TAB1, the “binding to TAB1: luciferase activity for pM-TAK1DN and pVP16-C68” value is “binds to TAB1”.
